Numbering of substitutions follows the chain as printed.

The chains are these.
B1: TCRCD8-EL8-LM7 #1 (TCR)
TCR alpha: AQKITQTQPGMFVQEKEAVTLDCTYDTSDPSYGLFWYKQPSSGEMIFLIYQGSYDQQNATEGRYSLNFQKARKSANLVISASQLGDSAMYFCAMREGQDSSYKLIFGSGTRLLVRPDIQNPDPAVYQLRDS
TCR beta: MGTRLLCCVAFCLLGAGPVDSGVTQTPKHLITATGQRVTLRCSPRSGDLSVYWYQQSLDQGLQFLIQYYNGEERAKGNILERFSAQQFPDLHSELNLSSLELGDSALYFCASSVLGPNTEAFFGQGTRLTVVEDLNKVFPPEVAVFE
B2: TCRCD8-EL8-LM7 #8 (TCR)
TCR alpha: B1 TCR alpha with G97I, Q98R
TCR beta: B1 TCR beta with Y68H, V114P, L115A
B3: TCRCD8-EL8-LM7 #4 (TCR)
TCR alpha: AQKVTQAQTEISVVEKEDVTLDCVYETRDTTYYLFWYKQPPSGELVFLIRRNSFDEQNEISGRYSWNFQKSTSSFNFTITASQVVDSAVYFCALSNAGGTSYGKLTFGQGTILTVHPNIQNPDPAVYQLRDS
TCR beta: EAQVTQNPRYLITVTGKKLTVTCSQNMNHEYMSWYRQDPGLGLRQIYYSMNVEVTDKGDVPEGYKVSRKEKRNFPLILESPSPNQTSLYFCASSRRLPPPYGYTFGSGTRLTVVEDLNKVFPPEVAVFE
B4: TCRCD8-EL8-LM7 #7 (TCR)
TCR alpha: AQKVTQAQTEISVVEKEDVTLDCVYETRDTTYYLFWYKQPPSGELVFLIRRNSFDEQNEISGRYSWNFQKSTSSFNFTITASQVVDSAVYFCALSESSNTGKLIFGQGTTLQVKPDIQNPDPAVYQLRDS
TCR beta: B3 TCR beta with L97E

This experiment deals with HLA-A*01:01 presenting KRAS-Q61H 55-64 (…) (human). Briefly: cell-based or functional assay.
As to B1, the minimal recognized peptide concentration (functional avidity, IFNγ ELISPOT) turned out to be 10 nM.
In the case of B2 it was 100 nM; in that of B3, 10 nM.
Molecule B4 registered a minimal recognized peptide concentration (functional avidity, IFNγ ELISPOT) of 10 nM.

The record behind these values is US20230405046A1.
